In patent publication US20070231333A1, “ANTI-5T4 ANTIBODIES AND USES THEREOF” (Wyeth, priority 2006, published 2007):

B1: chimeric A2: chimeric A2 antibody: murine A2 variable regions, human IgG4 heavy chain and human kappa light chain constant regions (antibody, V domains shown)
VH: QVQLQQSRPELVKPGASVKMSCKASGYTFTDYVISWVKQRTGQGLEWIGEIYPGSNSIYYNEKFKGRATLTADKSSSTAYMQLSSLTSEDSAVYFCAMGGNYGFDYWGQGTTLTVSS
VL: QIVLTQSPAIMSASLGERVTLTCTASSSVNSNYLHWYQQKPGSSPKLWIYSTSNLASGVPARFSGSGSGTSYSLTISSMEAEDAATYYCHQYHRSPLTFGAGTKLELK
B2: chimeric A1: chimeric A1 antibody: murine A1 variable regions, human IgG4 heavy chain and human kappa light chain constant regions (antibody, V domains shown)
VH: QIQLVQSGPELKKPGETVKISCKASGYTFTNFGMNWVKQGPGEGLKWMGWINTNTGEPRYAEEFKGRCAFSLETTASTAYLQINNLKNEDTATYFCARDWDGAYFFDYWGQGTTLTVSS
VL: SIVMTQTPKFLLVSAGDRVTITCKASQSVSNDVAWYQQKPGQSPKLLINFATNRYTGVPNRFTGSGYGTDFTFTISTVQAEDLALYFCQQDYSSPWTFGGGTKLEIK
B3: chimeric A3: chimeric A3 antibody: murine A3 variable regions, human IgG4 heavy chain and human kappa light chain constant regions (antibody, V domains shown)
VH: EVQLVESGGGLVQPKGSLKLSCAASGFTFNTYAMNWVRQAPGKGLEWVARIRSKSNNYATYYADSVKDRFTISRDDSQSMLYLQMNNLKTEDTAMYCCVRQWDYDVRAMNYWGQGTSVTVSS
VL: DIVMTQSHIFMSTSVGDRVSITCKASQDVDTAVAWYQQKPGQSPKLLIYWASTRLTGVPDRFTGSGSGTDFTLTISNVQSEDLADYFCQQYSSYPYTFGGGTKLEIK

Tests used:
[1] = molecular target: T1, mouse 5T4 ectodomain/Fc fusion protein (Mus musculus, UniProt Q9Z0L0); assay: Cross-species reactivity ELISA, 5T4 ectodomain/Fc fusion proteins; format: binding; set-up: key: +: binding; −: no binding; +/−: partial binding
T1 construct: prepared using mouse 5T4 (amino acids 1-361); human IgG1 Fc; made in house; host or cells: COS-1 cells (transient transfection)
T1 sequence (Q9Z0L0 32-361): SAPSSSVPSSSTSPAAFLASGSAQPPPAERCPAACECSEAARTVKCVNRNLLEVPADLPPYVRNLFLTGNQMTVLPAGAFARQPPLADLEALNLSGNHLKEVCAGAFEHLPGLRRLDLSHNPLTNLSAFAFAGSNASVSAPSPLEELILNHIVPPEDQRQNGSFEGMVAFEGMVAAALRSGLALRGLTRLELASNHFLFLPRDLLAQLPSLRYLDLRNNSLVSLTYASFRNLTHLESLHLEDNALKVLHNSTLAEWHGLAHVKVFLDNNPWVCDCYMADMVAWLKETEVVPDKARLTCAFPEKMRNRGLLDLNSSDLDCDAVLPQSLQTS
Protocol: (§1) The cross-species reactivity of anti-5T4 antibodies disclosed herein was assayed to determine relevant species for in vivo efficacy studies and toxicology analysis. Correlation of binding activity and relatedness of the different 5T4 ectodomains was also used to further describe the epitope bound by each antibody. Binding assays were performed using 5T4 ectodomains from various species fused to human IgG1 Fc. To assay binding of anti-5T4 antibodies, 5T4 ectodomain/Fc fusion proteins were transiently transfected into COS-1 cells, and ELISA assays were performed. Non-relevant human IgG4 and IgG1 antibodies were used as controls.

[2] = molecular target: T2, rat 5T4 ectodomain/Fc fusion protein (Rattus norvegicus, UniProt Q5PQV5); assay: as above; format: binding; set-up: key: +: binding; −: no binding; +/−: partial binding
T2 construct: rat 5T4 (amino acids 1-361); human IgG1 Fc; made in house; host or cells: COS-1 cells (transient transfection)
T2 sequence (Q5PQV5 32-361): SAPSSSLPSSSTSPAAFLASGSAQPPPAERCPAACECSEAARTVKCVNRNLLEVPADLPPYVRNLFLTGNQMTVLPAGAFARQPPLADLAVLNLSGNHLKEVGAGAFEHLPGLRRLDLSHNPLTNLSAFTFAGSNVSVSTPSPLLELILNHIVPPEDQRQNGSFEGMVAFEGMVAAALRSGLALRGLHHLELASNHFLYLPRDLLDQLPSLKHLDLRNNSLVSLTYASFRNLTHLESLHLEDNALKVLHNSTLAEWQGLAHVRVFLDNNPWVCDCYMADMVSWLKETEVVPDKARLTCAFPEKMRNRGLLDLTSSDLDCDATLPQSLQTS
Protocol: as §1

human 5T4 antigen [3] = molecular target: T3, human 5T4 antigen (Homo sapiens, UniProt Q13641); assay: BIACORE competition assay: second antibody after saturation with first antibody; format: binding
T3 sequence (Q13641 32-420): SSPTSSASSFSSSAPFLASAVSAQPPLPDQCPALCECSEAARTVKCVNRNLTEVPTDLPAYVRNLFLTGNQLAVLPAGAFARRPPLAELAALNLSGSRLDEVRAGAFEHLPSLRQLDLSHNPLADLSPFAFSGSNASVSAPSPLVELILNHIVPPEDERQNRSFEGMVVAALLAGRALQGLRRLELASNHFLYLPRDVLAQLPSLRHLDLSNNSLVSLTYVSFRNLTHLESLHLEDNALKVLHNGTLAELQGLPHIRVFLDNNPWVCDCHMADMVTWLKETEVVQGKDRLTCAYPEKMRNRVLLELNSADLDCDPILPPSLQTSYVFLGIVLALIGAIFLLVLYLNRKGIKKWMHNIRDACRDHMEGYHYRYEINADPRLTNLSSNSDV
Protocol: Epitope mapping of the H8, A1, A2, and A3 antibodies was also performed using BIACORE® using a CM5 chip with bound human 5T4 antigen. The chip was saturated with H8, A1, A2, or A3 antibody, and a first response was measured. The chip was then saturated with a second antibody from among the H8, A1, A2, and A3 antibodies, and a second response was measured. For multiple experiments, the chip was regenerated by dissociation of the bound antibodies in 10 mM glycine, pH 1.5, followed by a buffer wash. The percentages shown are the response units measured upon binding by a second antibody directly to the CM5 chip divided by the response units measured upon binding of the second antibody to a CM5 chip saturated with a first antibody.
The epitopes bound by the H8 and A3 antibodies are sterically close to each other such that the rate of association with antigen is decreased when binding of H8 is assayed in the presence of A3, and vice versa. Similar results were obtained using the chimeric and humanized H8, A1, A2, and A3 antibodies, which were prepared as described in Example 7 herein below.

human 5T4 antigen [4] = molecular target: T3, human 5T4 antigen; assay: BIACORE analysis of antibody binding to human 5T4 antigen immobilized on a CM5 chip; conditions: chimeric and humanized antibodies, Table 12
Protocol: To assess the binding specificity and affinity of the A1, A2, and A3 antibodies, BIACORE® analysis was performed using human 5T4 antigen immobilized on a CM5 chip. BIACORE® technology utilizes changes in the refractive index at the surface layer upon binding of the antibody to the 5T4 antigen immobilized on the layer. Binding is detected by surface plasmon resonance (SPR) of laser light refracting from the surface. Analysis of the signal kinetics on rate and off rate allows discrimination between non-specific and specific interactions. The H8 anti-5T4 antibody was used as a control. H8 is a hybridoma-generated monoclonal mouse IgG1 antibody described in PCT International Publication No. WO 98/55607 and in Forsberg et al. (1997) J. Biol. Chem. 272(19):[…].
To assess the binding specificity and affinity of the chimeric and humanized H8, A1, A2, and A3 antibodies, BIACORE® analysis was performed using human 5T4 antigen immobilized on a CM5 chip. See Example 2.

[5] = system: black-tailed marmoset 5T4 ectodomain/Fc fusion protein; assay: Cross-species reactivity ELISA, 5T4 ectodomain/Fc fusion proteins; format: binding; set-up: key: +: binding; −: no binding; +/−: partial binding
black-tailed marmoset 5T4 ectodomain/Fc fusion protein, sequence (as listed by the source): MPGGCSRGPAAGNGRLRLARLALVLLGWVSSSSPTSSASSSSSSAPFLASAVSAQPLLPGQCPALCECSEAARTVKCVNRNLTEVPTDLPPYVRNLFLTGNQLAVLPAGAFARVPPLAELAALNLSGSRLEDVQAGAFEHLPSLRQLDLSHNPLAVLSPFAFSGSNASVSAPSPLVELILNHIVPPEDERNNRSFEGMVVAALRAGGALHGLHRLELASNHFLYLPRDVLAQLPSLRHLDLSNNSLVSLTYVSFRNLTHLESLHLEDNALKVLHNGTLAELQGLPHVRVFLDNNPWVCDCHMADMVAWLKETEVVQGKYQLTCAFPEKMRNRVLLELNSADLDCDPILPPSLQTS
Protocol: as §1

[6] = first antibody chimeric A1, 19 seconds after injection of second antibody
[7] = first antibody chimeric A1, 37.5 seconds after injection of second antibody
[8] = first antibody chimeric A1, 75 seconds after injection of second antibody
[9] = first antibody chimeric A1, 150 seconds after injection of second antibody
[10] = first antibody chimeric A1, 300 seconds after injection of second antibody
[11] = first antibody chimeric A1, 600 seconds after injection of second antibody
[12] = first antibody chimeric A3, 19 seconds after injection of second antibody
[13] = first antibody chimeric A3, 37.5 seconds after injection of second antibody
[14] = first antibody chimeric A3, 75 seconds after injection of second antibody
[15] = first antibody chimeric A3, 150 seconds after injection of second antibody
[16] = first antibody chimeric A3, 300 seconds after injection of second antibody
[17] = first antibody chimeric A3, 600 seconds after injection of second antibody
[18] = first antibody chimeric A2, 19 seconds after injection of second antibody
[19] = first antibody chimeric A2, 37.5 seconds after injection of second antibody
[20] = first antibody chimeric A2, 75 seconds after injection of second antibody
[21] = first antibody chimeric A2, 300 seconds after injection of second antibody
[22] = first antibody chimeric A2, 600 seconds after injection of second antibody

| Molecule | cross-reactivity (binding class) [1] | cross-reactivity (binding class) [2] | Percentage of Second Antibody Bound Following Saturation With First Antibody (human 5T4 antigen [3]; [6]) [%] | Percentage of Second Antibody Bound Following Saturation With First Antibody (human 5T4 antigen [3]; [7]) [%] | Percentage of Second Antibody Bound Following Saturation With First Antibody (human 5T4 antigen [3]; [8]) [%] | Percentage of Second Antibody Bound Following Saturation With First Antibody (human 5T4 antigen [3]; [9]) [%] | Percentage of Second Antibody Bound Following Saturation With First Antibody (human 5T4 antigen [3]; [10]) [%] | Percentage of Second Antibody Bound Following Saturation With First Antibody (human 5T4 antigen [3]; [11]) [%] | Percentage of Second Antibody Bound Following Saturation With First Antibody (human 5T4 antigen [3]; [12]) [%] | Percentage of Second Antibody Bound Following Saturation With First Antibody (human 5T4 antigen [3]; [13]) [%] | Percentage of Second Antibody Bound Following Saturation With First Antibody (human 5T4 antigen [3]; [14]) [%] | Percentage of Second Antibody Bound Following Saturation With First Antibody (human 5T4 antigen [3]; [15]) [%] | Percentage of Second Antibody Bound Following Saturation With First Antibody (human 5T4 antigen [3]; [16]) [%] | Percentage of Second Antibody Bound Following Saturation With First Antibody (human 5T4 antigen [3]; [17]) [%] | KA (human 5T4 antigen [4]) [M⁻¹] | ka (human 5T4 antigen [4]) [M⁻¹ s⁻¹] | kd (human 5T4 antigen [4]) [s⁻¹] | Percentage of Second Antibody Bound Following Saturation With First Antibody (human 5T4 antigen [3]; [18]) [%] | Percentage of Second Antibody Bound Following Saturation With First Antibody (human 5T4 antigen [3]; [19]) [%] | Percentage of Second Antibody Bound Following Saturation With First Antibody (human 5T4 antigen [3]; [20]) [%] | also measured |
| --- | --- | --- | --- | --- | --- | --- | --- | --- | --- | --- | --- | --- | --- | --- | --- | --- | --- | --- | --- | --- | --- |
| B1 | − | − | 102.9 | 93.5 | 90.1 | 89.0 | 88.9 | 89.1 | 89.2 | 88.4 | 89.8 | 91.5 | 92.9 | 94.3 | 5.7e+08 | 140000 | 0.00025 |  |  |  |  |
| B2 | − | +/− |  |  |  |  |  |  | 98.8 | 96.5 | 97.0 | 98.0 | 98.8 | 99.6 | 2.3e+09 | 150000 | 6.7e-05 | 92.5 | 90.6 | 91.4 | Percentage of Second Antibody Bound Following Saturation With First Antibody (human 5T4 antigen [3]; [21]): 93.9%; Percentage of Second Antibody Bound Following Saturation With First Antibody (human 5T4 antigen [3]; [22]): 95.5% |
| B3 | − | − | 82.1 | 82.0 | 84.5 | 87.8 | 90.8 | 92.8 |  |  |  |  |  |  |  |  |  | 92.2 | 88.6 | 89.5 | cross-reactivity (binding class) [5]: −; Percentage of Second Antibody Bound Following Saturation With First Antibody (human 5T4 antigen [3]; first antibody chimeric A2, 150 seconds after injection of second antibody): 91.5%; Percentage of Second Antibody Bound Following Saturation With First Antibody (human 5T4 antigen [3]; [21]): 93.4%; Percentage of Second Antibody Bound Following Saturation With First Antibody (human 5T4 antigen [3]; [22]): 94.6%; KA (1/M) (human 5T4 antigen [4]): ˜5.4 × 10^9 1/M; ka (1/Ms) (human 5T4 antigen [4]): ˜5.4 × 10^4 1/Ms; kd (1/s) (human 5T4 antigen [4]): ˜1.0 × 10^−5 1/s |
